From patent US20120302492A1

Molecular target: GPIIb/IIIa protein (UniProt P08514)
Experiment: equal mix of wt and RGD1 phage bound to GPIIb/IIIa-coated plate, eluted, phagemid DNA analysis

B1: phage wtCD59 (CD59-gIII fusion protein displayed on phage) (protein, human, UniProt P13987 26-102, looked up, not shown: small tags and cut ends; large carriers)
chain: LQCYNCPNPTADCKTAVNCSSDFDACLITKAGLQVYNKCWKFEHCNFNDVTTRLRENELTYYCCKKDLCNFNEQLEN
  clones recovered among 12 picked after binding of an equal phage mix: 1 clones of 12
